# Measurements: the nanobody polyreactivity screen of Harvey et al. (2022)
# Experiment: yeast display, Sf9 membrane polyspecificity reagent, FACS + sequencing; frameworks hold sequencing errors
# Summary of the method: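 Nanobodies from a synthetic yeast display library (Saccharomyces cerevisiae BJ5465), induced 36–48 hours with galactose, were stained 1 hour at 4 °C with 10% biotinylated, detergent-solubilized Sf9 membrane reagent, enriched on streptavidin microbeads, then FACS-sorted. Anti-HA (expression) and streptavidin (reagent binding) fluorescence set low and high (top ~1%) gates. Polyreactivity labels come from the gate of origin. Genes were colony-PCR amplified, MiSeq 2 × 250 sequenced and filtered by CDR length.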
row,Sequence,polyreactivity (PSR sort gate)
1,QVQLVESGGGLVQAGGSLRLSCAASGLTFIYNAMGWYRQAPGKERELVAAISGNGGDTYYADSVKGRFTISRDNAKNTVYLQMNSLKPEDTAVYYCAADYAYTPITWDEYWGQGTQVTVSS,low polyreactivity
2,QVQLVESGGGLVQAGGSLRLSCAASGLTFIYYAMGWYRQAPGKERELVAAISVSGGSTYYADSVKGRFTISRDNAKNTVYLQMNSLKPEDTAVYYCAADWFVHIPRYQYSFDYWGQGTQVTVSS,low polyreactivity
3,QVQLVESGGGLVQAGGSLRLSCAASGLTFKENVMGWYRQAPGKERELVAAISTGASTYYADSVKGRFTISRDNAKNTVYLQMNSLKPEDTAVYYCAKRVTRWYGYWGQGTQVTVSS,high polyreactivity
4,QVQLVESGGGLVQAGGSLRLSCAASGLTFKKYTIGWYRQAPGKETQLVAVITSGGSTYYADSVKGRFTISRDNAKNTVYLQMNSVKPEDTAVYYGAVKYPELRSWGNYYWGQGTQVTVSS,high polyreactivity
5,QVQLVESGGGLVQAGGSLRLSCAASGLTFKPYAMVWYRQAPGKEREFVAAISWRSGSTYYADSVKGRFTISRDYEKNTVYLQMNRLKPEDTAVYYCNALYRVFVGTYDFWGQGTHVTVSS,high polyreactivity
6,QVQLVESGGGLVQAGGSLRLSCAASGLTFKRYAMGWYRQAPGTEREFVAAISAGGASTHYADSVKGRFTISRDNAKNTVYLQMNSLKPEDTAVYYCATDYRTFRPSFGYWGQGTQVTVSS,low polyreactivity
7,QVQLVESGGGLVQAGGSLRLSCAASGLTFKYYAMGWYRQAPGKERELVAAITSTGGRTYYADSVKGRFTISRDNAKNTVYLQMNSLKPEDTAVYYCAAYYVGSSKYDSWGQGTQVTVSS,low polyreactivity
8,QVQLVESGGGLVQAGGSLRLSCAASGLTFKYYTMGWYRQAPGKERELVAAISRSGTITYYADSVKGRFTISRDNAKNTVYLQMNSLKPEDTAVYYSNKASTYPSYDYWGHGTQVTVSS,high polyreactivity
9,QVQLVESGGGLVQAGGSLRLSCAASGLTFKYYTMGWYRQAPGKERELVADISRTGRTSYADSVKGRFTISRDNAKNTDYLQMNSLKPEDTAVYYCNADFYVSGYSLFASIYDYWGQGTQVTVSS,high polyreactivity
10,QVQLVESGGGLVQAGGSLRLSCAASGLTFLDYAMGWYRQAPGKERELVAAITSGGSTNYADSVKGRFTISRDNAKNTVYLQMNSLKPEDTAVYYCATDLEVSAYDYWGQGTQVTVSS,low polyreactivity
11,QVQLVESGGGLVQAGGSLRLSCAASGLTFLINAMGWYRQAPGKERELVAAITSSGGSTSYADSVKGRFTISRDNAKYTVYLQMNSLKPEDTAVYYCAADLNAYPQRAYDYWGQGTQVTVSS,low polyreactivity
12,QVQLVESGGGLVQAGGSLRLSCAASGLTFLPNAMGWYRQAPGKERELVAAITNGGGTNYADSVKGRFTISRDNAKNTVYLQMNSLKPEDTAVYYCNADSTYFGGHDYWGQGTQVTVSS,low polyreactivity
13,QVQLVESGGGLVQAGGSLRLSCAASGLTFNTSAMGWSRQAPGKEREWVAAITSSGSITYYADSVKGRFTISRDNAKNTVYLQMNSLKPEDTAVYYCAAAVGYYAFGTYPFDDWPYDYWGQGTQVTVSS,high polyreactivity
14,QVQLVESGGGLVQAGGSLRLSCAASGLTFPRYAMGWYRQAPGKEREFVAGITYSGGSTYYADSVKGRFTISRDNAKNTVYLQMNSLKPEDTAVYYCAATPWSYEYYYWGQGTQVTVSS,low polyreactivity
15,QVQLVESGGGLVQAGGSLRLSCAASGLTFPYYAMGWYRQAPGTERELVAAISGGGRTYYADSVKGRFTISRDNAKNTVYLQMNSLKPEDTAVYYCAPFHVGRYTGTVTDGYDYWGQGTQVTVSS,high polyreactivity
16,QVQLVESGGGLVQAGGSLRLSCAASGLTFPYYSMGWYRQAPGKERVLVAAITKSGGSTYADSVKGRFTISRDNAKNTVYLQMNSLKPEDTAVYYCAAGRRKYGTKGRGDYWGQGTQVTVSS,low polyreactivity
17,QVQLVESGGGLVQAGGSLRLSCAASGLTFPYYVMGWYRQAPGKERELVAAIDDGGGSTYYADSVKGRFTISRDNAKNTVYLQMNSLKPEDTAVYYCAAQVDYLAHYGYWGQGTQVTVSS,low polyreactivity
18,QVQLVESGGGLVQAGGSLRLSCAASGLTFQSNAMGWSRQAPGKEREFVAAITSGGNTYYADSVKGRFTISRDNAKNTVYLQMNSLKPEDTAVYYCNADYQDEEDDYWGQGTQVTVSS,low polyreactivity
19,QVQLVESGGGLVQAGGSLRLSCAASGLTFQSYDMGWYRPAPGKERELVAAISRRGGSTYYADSVKGRFTISRDNAKNTVYLQLNSLKPEDTAVYYCAAETYYTYWPYGMGYWGQGTQVTVSS,high polyreactivity
20,QVQLVESGGGLVQAGGSLRLSCAASGLTFQSYDMGWYRQAPGKERELVAAISRRGGSTYYADSVKGRFTISRDNAKNTVYLQMNSLKPEDTAVYYCAAEYRSWSWRMDYWGQGTQVTVSS,high polyreactivity
21,QVQLVESGGGLVQAGGSLRLSCAASGLTFQVYAMGWYRQAPGKERELVAGITRGGRTYYADSVKGRFTISRDNAKNTVYLQMNSLKPEDTAVYYCNADAPYGGPSWAKSRYEYWGQGTQVTVSS,low polyreactivity

row,Sequence,polyreactivity (PSR sort gate)
1,QVQLVESGGGLVQAGGSLRLSCAASGLTFQWYAMGWYRQAPGKERELVAAISIGGSTNYADSVKGRFTISRDNAKNTVYLQMNSLKPEDTAVYYCNKGSDFFWYDYDYWGQGTQVTVSS,low polyreactivity
2,QVQLVESGGGLVQAGGSLRLSCAASGLTFQYNAMGWYRQAPGKERELVAANSRSGGRTYYADSVKGRFTISRDNAKNTVYLQLNSLKPEDTAVYYCAARDRSTRSDLTSYSVLYGNYYWGQGTQVTVSS,high polyreactivity
3,QVQLVESGGGLVQAGGSLRLSCAASGLTFRAYTMGWYRQAPGKERELVAAISRSGGSTYYADSVKGRFTISRDNAKNTVYLQMNSLKPEDTAVYYCAAPGYQTVGMGYWGQGTQVTVSS,high polyreactivity
4,QVQLVESGGGLVQAGGSLRLSCAASGLTFRDNAMGWYRQAPGKERELVATINSGGSTDYADSVKGRFTISRDNAKNTVYLQMNILKPEDTAVYYCAVYREYYDRGWYSIFYWYDYWGQGTQVTVSS,low polyreactivity
5,QVQLVESGGGLVQAGGSLRLSCAASGLTFRFYTMGWDRQAPGKERELVAAISTSGGSTYYADSVKGRFTISRDNAKNTVYLQMNSLKPEDTAVYYCNAVYALNGYDYWGQGTQVTVSS,low polyreactivity
6,QVQLVESGGGLVQAGGSLRLSCAASGLTFRGYAMGWYRQAPGKERELVAAITSSAGRTYYADSVKGRFTISRDNAKNTVYLQMNSLKPEDTAVYYCAAEYASWFGSMNYWGQGTQVTVSS,high polyreactivity
7,QVQLVESGGGLVQAGGSLRLSCAASGLTFRPNAMGWYRQAPGKERELVAAISWSGRTYYADSVKGRFTISRDNAKNTVYLQMNILKPEDTAVYYCAARGYSDRYGYWGQGTQVTVSS,high polyreactivity
8,QVQLVESGGGLVQAGGSLRLSCAASGLTFRRNTMGWYRQAPGKERELVATITSGGSTNYADSVKGRFTISRDNAKNTVYLQMNSLKPEDTAVYYCAARTTYITTWVYRHTYTYYYWGQGTQVTVSS,high polyreactivity
9,QVQLVESGGGLVQAGGSLRLSCAASGLTFRRYAMGWYRQAPGKERELVAGISRGGSTYYADSVKGRFTISRDNAKNTVYLQMNRLKPEDTAVYYCAAYNSGTYPVQPVPYDMDYWGQGTQVTVSS,low polyreactivity
10,QVQLVESGGGLVQAGGSLRLSCAASGLTFRVNDMGWYRQAPGKERELVATISSGGSTYYADSVKGRFTISRDNAKNTVYLQMNSLKPEDTAVYYCATNSEGQESNSYYVWMGYWGQGTQVTVSS,low polyreactivity
11,QVQLVESGGGLVQAGGSLRLSCAASGLTFRVYAMGWYRQEPGKERELVASISRTGSTTYADSVKGRFTISRDNAKNTVYLQMNSLKPEDTAVYYCNARYYVLLWDSLAREYWGQGTQVTVSS,high polyreactivity
12,QVQLVESGGGLVQAGGSLRLSCAASGLTFRYNAMGWYRQATGKERELVARISRNGGRTYYADSVKGRFTISRDNAKNTVYLQMNSLKPEDTAVYYCNVVYFVTTSPGYDYWGQGTQVTVSS,high polyreactivity
13,QVQLVESGGGLVQAGGSLRLSCAASGLTFRYYAMGWYRQAPGKERELVAAISRSGGSTYYADSVKGRFTISRDNAKNTVYLQMNSLKPEDTAVYYCAAGRRGGKQGGTRGGDYWGQGTQVTVSS,high polyreactivity
14,QVQLVESGGGLVQAGGSLRLSCAASGLTFRYYTMGWYRQAPGKERELVAAITKSGSSTYYADSVKGRFTISRDNAKNTVYLQMNSLKPEDTAVYYCAKDSNHWGQGTQVTVSS,high polyreactivity
15,QVQLVESGGGLVQAGGSLRLSCAASGLTFSDYAIGWYRQAPGKEREFVAAITRNGGSTRYADSVKGRFTFSRDNAKNTVYLKMNRLKPEDTAVYYCATDVGFGRKQRPHRPGYGYWGQGTQVTVSS,low polyreactivity
16,QVQLVESGGGLVQAGGSLRLSCAASGLTFSHYAMGWYRQAPRKERELVAGISSRGGNTYYADSVKGRFTISRDNAKNTVYLQMNSLKPEDTAVYYCNAPKPKRAYDYWGQGTQVTVSS,high polyreactivity
17,QVQLVESGGGLVQAGGSLRLSCAASGLTFSIYAMGWYRQAPGKERELVASITSSGGSTYYADSVKGRFTISRDNAKNTVYLQMNSLKPEDTAVYYCATGRSRDYDYWGQGTQVTVSS,high polyreactivity
18,QVQLVESGGGLVQAGGSLRLSCAASGLTFSKNAMGWYRQAPGKEREVVATISYSSYRTNYADSVKGRFTISRDNANNPVYLQMNSLKPEDTAVYYCAARVSKGWPTHYDYWGQGTQVTVSS,high polyreactivity
19,QVQLVESGGGLVQAGGSLRLSCAASGLTFSKYAMGWYRQAPGQERELVAAITRGDRTYSADSVKGRFTISRDNAKNTVYLQMNSLKPEDTAVYYCAARQYYWGQGTQVTVSS,high polyreactivity
20,QVQLVESGGGLVQAGGSLRLSCAASGLTFSLYAMGWYRQAPGKERELVAAISWTGGSTYYADSVKGRFTISRDNAKNTVYLQMNSLKPEDTAVYYCNARYTLFARYCYDYWGQGPQVTVSS,low polyreactivity
